# Patent US20140045930A1, “ASSAY FOR ARGINYL HYDROXYLASE ACTIVITY” (priority 2011, published 2014)
# Molecular target: His-tagged L16 protein (recombinant, produced in YcfD knock out strain JW1114) (E. coli) (UniProt A7ZSK2)
# Test: cell-based or functional assay
substance,measurement,value
YcfD ectopically expressed in the deletion strain JW1114 (co-expressed with L16 from pETDuet-1) (from UniProt P27431 1-373) (enzyme),hydroxylation of R-81 in L16 in vivo (MS); unmodified peptide detected (% unmodified peptide),< 1
